The record followed here is PMC5076501.

Assay [1] has as its target HSP70-1A, P0DMV8. The assay can be described thus: co-immunoprecipitation (anti-GFP IP) with immunoblot densitometry. The conditions noted are these: chain shown with the change; detergent lysates from stably transfected HEK293 cells; three independent experiments; parent: est. 0.32; read off a plot.
In assay [2] the target is T1, calnexin, P27824.
T1 chain: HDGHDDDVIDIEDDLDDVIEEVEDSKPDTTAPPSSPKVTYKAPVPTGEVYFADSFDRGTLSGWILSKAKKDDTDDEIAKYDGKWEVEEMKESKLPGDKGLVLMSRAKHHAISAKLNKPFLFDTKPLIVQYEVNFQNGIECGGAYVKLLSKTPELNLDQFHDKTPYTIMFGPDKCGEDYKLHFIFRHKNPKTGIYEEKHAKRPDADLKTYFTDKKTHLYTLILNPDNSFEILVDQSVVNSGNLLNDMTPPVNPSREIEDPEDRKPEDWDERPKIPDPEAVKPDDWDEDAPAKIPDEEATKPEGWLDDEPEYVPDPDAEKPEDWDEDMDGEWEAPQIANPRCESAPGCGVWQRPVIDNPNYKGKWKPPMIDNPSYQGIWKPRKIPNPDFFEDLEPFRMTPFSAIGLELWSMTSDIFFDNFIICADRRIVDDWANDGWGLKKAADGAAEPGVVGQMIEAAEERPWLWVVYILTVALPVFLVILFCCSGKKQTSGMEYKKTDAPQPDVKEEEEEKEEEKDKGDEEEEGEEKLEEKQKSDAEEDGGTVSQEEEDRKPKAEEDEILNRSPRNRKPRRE
Described as above. The conditions noted are these: chain shown with the change; detergent lysates from stably transfected HEK293 cells; three independent experiments; parent: est. 0.73; read off a plot.

Chain of HSP70-1A, P0DMV8 (P0DMV8 whole entry): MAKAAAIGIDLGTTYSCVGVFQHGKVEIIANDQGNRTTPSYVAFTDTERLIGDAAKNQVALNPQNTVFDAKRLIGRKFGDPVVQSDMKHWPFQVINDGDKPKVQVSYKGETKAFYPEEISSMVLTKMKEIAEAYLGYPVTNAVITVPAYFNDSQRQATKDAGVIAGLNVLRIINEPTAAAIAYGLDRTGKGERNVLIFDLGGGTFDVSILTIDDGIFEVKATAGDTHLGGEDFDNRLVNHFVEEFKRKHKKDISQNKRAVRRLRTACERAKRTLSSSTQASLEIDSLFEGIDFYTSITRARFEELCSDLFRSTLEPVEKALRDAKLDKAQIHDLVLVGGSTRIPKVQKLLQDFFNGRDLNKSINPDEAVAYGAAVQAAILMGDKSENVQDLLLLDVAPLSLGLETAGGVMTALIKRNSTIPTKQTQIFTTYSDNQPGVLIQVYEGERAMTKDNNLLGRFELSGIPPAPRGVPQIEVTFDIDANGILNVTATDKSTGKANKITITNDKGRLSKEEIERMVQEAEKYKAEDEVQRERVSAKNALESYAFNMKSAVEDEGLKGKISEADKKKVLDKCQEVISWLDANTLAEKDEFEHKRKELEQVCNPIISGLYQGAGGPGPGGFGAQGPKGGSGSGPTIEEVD

B1: YFP-tagged wild-type Drosophila melanogaster dopamine transporter, Q7K4Y6 G108Q (protein)
chain: MSPTGHISKSKTPTPHDNDNNSISDERETWSGKVDFLLSVIGFAVDLANVWRFPYLCYKNGGGAFLVPYGIMLVVGGIPLFYMELALGQHNRKGAITCWGRLVPLFKQIGYAVVLIAFYVDFYYNVIIAWSLRFFFASFTNSLPWTSCNNIWNTPNCRPFESQNASRVPVIGNYSDLYAMGNQSLLYNETYMNGSSLDTSAVGHVEGFQSAASEYFNRYILELNRSEGIHDLGAIKWDMALCLLIVYLICYFSLWKGISTSGKVVWFTALFPYAVLLILLIRGLTLPGSFLGIQYYLTPNFSAIYKAEVWVDAATQVFFSLGPGFGVLLAYASYNKYHNNVYKDALLTSFINSATSFIAGFVIFSVLGYMAHTLGVRIEDVATEGPGLVFVVYPAAIATMPASTFWALIFFMMLLTLGLDSSFGGSEAIITALSDEFPKIKRNRELFVAGLFSLYFVVGLASCTQGGFYFFHLLDRYAAGYSILVAVFFEAIAVSWIYGTNRFSEDIRDMIGFPPGRYWQVCWRFVAPIFLLFITVYGLIGYEPLTYADYVYPSWANALGWCIAGSSVVMIPAVAIFKLLSTPGSLRQRFTILTTPWRDQQSMAMVLNGVTTEVTVVRLTDTETAKEPVDV
B1: the response (integrated density (chaperones/DAT)) in assay [1] worked out at 0.73; in assay [2] it was 1.7.
